{"source": "paper PMC6412877", "about": "“Novel Site-Specific Fatty Chain-Modified GLP-1 Receptor Agonist with Potent Antidiabetic Effects” (Molecules, 2019)"}
{"biological_target": "Glucagon-like peptide-1 receptor extracellular domain", "experiment": "SPR; Biacore 8K, according to the user's manual; who was immobilised and the conditions are not stated", "units": {"Kd": "nM"}}
{"binder": "YSHAYLEETQRFGGPSSGAPPPS", "note": "[PEP11]", "Kd": 1250}
{"binder": "EFIATAWLVKQT", "note": "[PEP06]", "Kd": 2590}
{"binder": "FFYSSPSAYLET", "note": "[PEP01]", "Kd": 740}
{"binder": "KEYSSPAATQRFGGPSSGAPPPS", "note": "[PEP08]", "Kd": 151}
{"binder": "YSHAYLEETQRF", "note": "[PEP05]", "Kd": 2210}
{"binder": "FTSEGTSSYLETGGPSSGAPPPS", "note": "[PEP10]", "Kd": 3000}
{"binder": "FTSEGTSSYLET", "note": "[PEP04]", "Kd": 3990}
{"binder": "FFYSSPSAYLETGGPSSGAPPPS", "note": "[PEP07]", "Kd": 24}
{"binder": "KEYSSPAATQRF", "note": "[PEP02]", "Kd": 1050}
{"binder": "KQYSSPTAWLVG", "note": "[PEP03]", "Kd": 1750}
{"binder": "EFIATAWLVKQTGGPSSGAPPPS", "note": "[PEP12]", "Kd": 1090}
